According to US20080249004A1:

Molecular target: NCAM Ig1-2-3 fragment (recombinant rat NCAM residues 1-289, deglycosylated) (rat)
Experiment: dynamic light scattering, 4 mg/ml in PBS pH 7.4, 18 C; self-association

- molecular weight in solution (DLS): 78 kDa
Substance: NCAM Ig1-2-3 fragment (recombinant rat NCAM residues 1-289, deglycosylated) (from UniProt P13595 20-308)
